# According to patent US20140348819A1, “Methods of Treating Cancer” (Dana-Farber Cancer Institute, Inc., priority 2011, published 2014):
# B1: MSP (protein, UniProt P26927 19-711, looked up)
# Hepatocyte growth factor-like …: QRSPLNDFQVLRGTELQHLLHAVVPGPWQEDVADAEECAGRCGPLMDCRAFHYNVSSHGCQLLPWTQHSPHTRLRRSGRCDLFQKKDYVRTCIMNNGVGYRGTMATTVGGLPCQAWSHKFPNDHKYTPTLRNGLEENFCRNPDGDPGGPWCYTTDPAVRFQSCGIKSCREAACVWCNGEEYRGAVDRTESGRECQRWDLQHPHQHPFEPGKFLDQGLDDNYCRNPDGSERPWCYTTDPQIEREFCDLPRCGSEAQPRQEATTVSCFRGKGEGYRGTANTTTAGVPCQRWDAQIPHQHRFTPEKYACKDLRENFCRNPDGSEAPWCFTLRPGMRAAFCYQIRRCTDDVRPQDCYHGAGEQYRGTVSKTRKGVQCQRWSAETPHKPQFTFTSEPHAQLEENFCRNPDGDSHGPWCYTMDPRTPFDYCALRRCADDQPPSILDPPDQVQFEKCGKRVDRLDQRRSKLRVVGGHPGNSPWTVSLRNRQGQHFCGGSLVKEQWILTARQCFSSCHMPLTGYEVWLGTLFQNPQHGEPSLQRVPVAKMVCGPSGSQLVLLKLERSVTLNQRVALICLPPEWYVVPPGTKCEIAGWGETKGTGNDTVLNVALLNVISNQECNIKHRGRVRESEMCTEGLLAPVGACEGDYGGPLACFTHNCWVLEGIIIPNRVCARSRWPAVFTRVSVFVDWIHKVMRLG
# Test system: six V600E BRAF melanoma cell lines
# Experiment: Screening of recombinant RTK ligands for ability to confer resistance to BRAFi (PLX4720) or MEKi (PD184352) (Table 4)
# Assay type: cell-based, human
# Summary of the method: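 Six V600E BRAF melanoma lines treated with PLX4720 or PD184352 after addition of 22 recombinant RTK ligands, scored for drug resistance. Activation of selected RTKs confirmed by western blotting and high-throughput tyrosine kinase phosphorylation profiling.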
molecule,measurement,setting,value
B1,ability of recombinant RTK ligand to confer resistance,"A2058, PD184352 - 1 uM, ligand 0.4 ng/ml",1.06
same,ability of recombinant RTK ligand to confer resistance,"A2058, PD184352 - 1 uM, ligand 1.6 ng/ml",0.98
same,ability of recombinant RTK ligand to confer resistance,"A2058, PD184352 - 1 uM, ligand 6.25 ng/ml",1.03
same,ability of recombinant RTK ligand to confer resistance,"A2058, PD184352 - 1 uM, ligand 25 ng/ml",1.09
same,ability of recombinant RTK ligand to confer resistance,"A2058, PD184352 - 1 uM, ligand 100 ng/ml",1.05
same,ability of recombinant RTK ligand to confer resistance,"A2058, PLX4720 - 2 uM, ligand 0.4 ng/ml",1.04
same,ability of recombinant RTK ligand to confer resistance,"A2058, PLX4720 - 2 uM, ligand 1.6 ng/ml",1.02
same,ability of recombinant RTK ligand to confer resistance,"A2058, PLX4720 - 2 uM, ligand 6.25 ng/ml",1.05
same,ability of recombinant RTK ligand to confer resistance,"A2058, PLX4720 - 2 uM, ligand 25 ng/ml",1.04
same,ability of recombinant RTK ligand to confer resistance,"A2058, PLX4720 - 2 uM, ligand 100 ng/ml",1.05
same,ability of recombinant RTK ligand to confer resistance,"C32, PD184352 - 1 uM, ligand 0.4 ng/ml",0.99
same,ability of recombinant RTK ligand to confer resistance,"C32, PD184352 - 1 uM, ligand 1.6 ng/ml",1.02
same,ability of recombinant RTK ligand to confer resistance,"C32, PD184352 - 1 uM, ligand 6.25 ng/ml",1.07
same,ability of recombinant RTK ligand to confer resistance,"C32, PD184352 - 1 uM, ligand 25 ng/ml",1.01
same,ability of recombinant RTK ligand to confer resistance,"C32, PD184352 - 1 uM, ligand 100 ng/ml",0.95
same,ability of recombinant RTK ligand to confer resistance,"C32, PLX4720 - 2 uM, ligand 0.4 ng/ml",1.07
same,ability of recombinant RTK ligand to confer resistance,"C32, PLX4720 - 2 uM, ligand 1.6 ng/ml",1.01
same,ability of recombinant RTK ligand to confer resistance,"C32, PLX4720 - 2 uM, ligand 6.25 ng/ml",1.04
same,ability of recombinant RTK ligand to confer resistance,"C32, PLX4720 - 2 uM, ligand 25 ng/ml",1.02
same,ability of recombinant RTK ligand to confer resistance,"C32, PLX4720 - 2 uM, ligand 100 ng/ml",0.95
same,ability of recombinant RTK ligand to confer resistance,"Colo 829, PD184352 - 1 uM, ligand 0.4 ng/ml",1.03
same,ability of recombinant RTK ligand to confer resistance,"Colo 829, PD184352 - 1 uM, ligand 1.6 ng/ml",0.98
same,ability of recombinant RTK ligand to confer resistance,"Colo 829, PD184352 - 1 uM, ligand 6.25 ng/ml",1.01
same,ability of recombinant RTK ligand to confer resistance,"Colo 829, PD184352 - 1 uM, ligand 25 ng/ml",0.96
same,ability of recombinant RTK ligand to confer resistance,"Colo 829, PD184352 - 1 uM, ligand 100 ng/ml",0.93
same,ability of recombinant RTK ligand to confer resistance,"Colo 829, PLX4720 - 2 uM, ligand 0.4 ng/ml",0.98
same,ability of recombinant RTK ligand to confer resistance,"Colo 829, PLX4720 - 2 uM, ligand 1.6 ng/ml",0.94
same,ability of recombinant RTK ligand to confer resistance,"Colo 829, PLX4720 - 2 uM, ligand 6.25 ng/ml",1.03
same,ability of recombinant RTK ligand to confer resistance,"Colo 829, PLX4720 - 2 uM, ligand 25 ng/ml",0.97
same,ability of recombinant RTK ligand to confer resistance,"Colo 829, PLX4720 - 2 uM, ligand 100 ng/ml",0.99
same,ability of recombinant RTK ligand to confer resistance,"G-361, PD184352 - 1 uM, ligand 0.4 ng/ml",1.04
same,ability of recombinant RTK ligand to confer resistance,"G-361, PD184352 - 1 uM, ligand 1.6 ng/ml",0.96
same,ability of recombinant RTK ligand to confer resistance,"G-361, PD184352 - 1 uM, ligand 6.25 ng/ml",0.92
same,ability of recombinant RTK ligand to confer resistance,"G-361, PD184352 - 1 uM, ligand 25 ng/ml",0.98
same,ability of recombinant RTK ligand to confer resistance,"G-361, PD184352 - 1 uM, ligand 100 ng/ml",0.90
same,ability of recombinant RTK ligand to confer resistance,"G-361, PLX4720 - 2 uM, ligand 0.4 ng/ml",1.00
same,ability of recombinant RTK ligand to confer resistance,"G-361, PLX4720 - 2 uM, ligand 1.6 ng/ml",0.89
same,ability of recombinant RTK ligand to confer resistance,"G-361, PLX4720 - 2 uM, ligand 6.25 ng/ml",0.91
same,ability of recombinant RTK ligand to confer resistance,"G-361, PLX4720 - 2 uM, ligand 25 ng/ml",0.93
same,ability of recombinant RTK ligand to confer resistance,"G-361, PLX4720 - 2 uM, ligand 100 ng/ml",0.88
same,ability of recombinant RTK ligand to confer resistance,"SK-MEL-5, PD184352 - 1 uM, ligand 0.4 ng/ml",0.94
same,ability of recombinant RTK ligand to confer resistance,"SK-MEL-5, PD184352 - 1 uM, ligand 1.6 ng/ml",1.11
same,ability of recombinant RTK ligand to confer resistance,"SK-MEL-5, PD184352 - 1 uM, ligand 6.25 ng/ml",1.00
same,ability of recombinant RTK ligand to confer resistance,"SK-MEL-5, PD184352 - 1 uM, ligand 25 ng/ml",0.99
same,ability of recombinant RTK ligand to confer resistance,"SK-MEL-5, PD184352 - 1 uM, ligand 100 ng/ml",1.11
same,ability of recombinant RTK ligand to confer resistance,"SK-MEL-5, PLX4720 - 2 uM, ligand 0.4 ng/ml",0.87
same,ability of recombinant RTK ligand to confer resistance,"SK-MEL-5, PLX4720 - 2 uM, ligand 1.6 ng/ml",1.03
same,ability of recombinant RTK ligand to confer resistance,"SK-MEL-5, PLX4720 - 2 uM, ligand 6.25 ng/ml",0.98
same,ability of recombinant RTK ligand to confer resistance,"SK-MEL-5, PLX4720 - 2 uM, ligand 25 ng/ml",1.01
same,ability of recombinant RTK ligand to confer resistance,"SK-MEL-5, PLX4720 - 2 uM, ligand 100 ng/ml",1.12
same,ability of recombinant RTK ligand to confer resistance,"SK-MEL-28, PD184352 - 1 uM, ligand 0.4 ng/ml",0.95
same,ability of recombinant RTK ligand to confer resistance,"SK-MEL-28, PD184352 - 1 uM, ligand 1.6 ng/ml",0.94
same,ability of recombinant RTK ligand to confer resistance,"SK-MEL-28, PD184352 - 1 uM, ligand 6.25 ng/ml",1.00
same,ability of recombinant RTK ligand to confer resistance,"SK-MEL-28, PD184352 - 1 uM, ligand 25 ng/ml",1.01
same,ability of recombinant RTK ligand to confer resistance,"SK-MEL-28, PD184352 - 1 uM, ligand 100 ng/ml",0.97
same,ability of recombinant RTK ligand to confer resistance,"SK-MEL-28, PLX4720 - 2 uM, ligand 0.4 ng/ml",0.92
same,ability of recombinant RTK ligand to confer resistance,"SK-MEL-28, PLX4720 - 2 uM, ligand 1.6 ng/ml",1.02
same,ability of recombinant RTK ligand to confer resistance,"SK-MEL-28, PLX4720 - 2 uM, ligand 6.25 ng/ml",1.00
same,ability of recombinant RTK ligand to confer resistance,"SK-MEL-28, PLX4720 - 2 uM, ligand 25 ng/ml",0.97
same,ability of recombinant RTK ligand to confer resistance,"SK-MEL-28, PLX4720 - 2 uM, ligand 100 ng/ml",0.93
